# Data taken from US20240138384A1.
# Molecular target: humanized CD47 polypeptide on red blood cells from humanized CD47 mice (human extracellular and transmembrane portions with mouse signal peptide portion and mouse intracytoplasmic tail) (UniProt Q08722)
# Experiment: flow cytometry on RBCs from humanized CD47 mice, isotype control (baseline)
# Chain of UniProt Q08722 (Q08722 other isoform, or with tags, fused parts or gaps limits assumed): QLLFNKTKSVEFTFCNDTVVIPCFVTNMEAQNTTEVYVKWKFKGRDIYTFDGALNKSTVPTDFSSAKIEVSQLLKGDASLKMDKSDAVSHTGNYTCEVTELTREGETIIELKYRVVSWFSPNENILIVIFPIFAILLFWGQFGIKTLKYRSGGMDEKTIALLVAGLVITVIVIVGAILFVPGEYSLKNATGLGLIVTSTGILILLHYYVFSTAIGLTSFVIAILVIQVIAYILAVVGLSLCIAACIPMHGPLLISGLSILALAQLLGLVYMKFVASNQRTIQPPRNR
row,Substance,MFI [MFI]
1,"Control, hIgG4s (antibody)",112
2,"Control, hIgG4 (antibody)",112
